Experimental data published in article PMC11869522, “Competitive displacement of lipoprotein lipase from heparan sulfate is orchestrated by a disordered acidic cluster in GPIHBP1” (Journal of Lipid Research, 2025).

Experiments:
[1] = tested on: bLPL; assay: Protein stability by differential scanning fluorimetry (nano-DSF, turbidity); parameters: species or system bovine; conditions: 10 μM bLPL with 15 μM GPIHBP1 variant; 10 mM HEPES, 150 mM NaCl pH 7.4; 1°C/min, 15−95°C; back-reflection turbidity; triplicates
Experimental: The thermostability of bLPL in the presence or absence of GPIHBP1 was measured by differential scanning fluorometry (nano-DSF) with a Prometheus Panta (Nanotemper Technologies) using a previously published method ([22]). In brief; 10 μM bLPL alone or in the presence of 15 μM GPIHBP1^1–131, 15 μM GPIHBP1^Cluster1-neutral, or 15 μM GPIHBP1^Cluster2-neutra1 were prepared in 10 mM HEPES, 150 mM NaCl (pH 7.4) and heated in capillaries with a ramping temperature of 1°C/min from 15−95°C. Turbidity was measured by assessing back-reflection and was used as a surrogate marker for thermal unfolding ([20]). All samples were measured in triplicates.
Next, we probed if recombinant GPIHBP1^1–131 with defined neutralizations of charge-clusters 1 or 2 had distinct impacts on their ability to protect bLPL from ANGPTL4-mediated inactivation. […]
Fig. 4 GPIHBP1 clusters 1 and 2 have distinct impacts on LPL stability and inactivation by ANGPTL4. […] LPL activity was measured by the release of free fatty acids from Intralipid using the NEFA 2 assay. […] B: Thermostability of 10 μM bLPL in the presence of 15 μM of the different GPIHBP1 charge variants using Tturbidity measured by Prometheus Panta™ as a surrogate marker for unfolding ([20]).

[2] = tested on: bovine LPL; assay: Native PAGE binding to bovine LPL; conditions: 4 µM LPL with 18 µM GPIHBP1, 30 min on ice; Coomassie staining
Experimental: (§1) Distinct impacts of disordered acidic clusters in GPIHBP1
(§2) To confirm interactions between puri fi ed human GPIHBP11–131, G P IH B P 1 Cluster1-neutral, or GPIHBP1 Cluster2-neutral with human, mouse, and bovine LPL, these protein pairs were incubated for 30 min on ice (4 µM LPL with 18 µM GPIHBP1) before they were analyzed by native PAGE. As th ese concentrations were well above t he K D of 0.2 nM for the wildtype LPL•GPIHBP1 interaction, LPL is saturated with GPIHBP1 in these experiments (1). […]
(§3) spect r a for the purified GPIHBP1 variants wer e r ecor ded at 25°C in Helman cuvettes (path- length of 1 mm) with a scan rate of 50 nm/ min c ove r i ng the range of 190- 250 nm, averaging three scans for each protein. Spectra for the pr ote i ns were compared after converting to molar ellipticity using the following equation, […] where, Mw is the molecular weight of the protein, c is the protein concentration in g/l, l is the pat h-length of the cuvette, Nr number of amino acid residues in the protein.
(§4) Figure S1 : Binding of GPIHBP1 charge mutants to LPL as assessed by Native PAGE. The electrophoretic mobility of GPIHBP1 variants alone or in presence of purified human LPL ( A), b ovine LPL (B), and murine LPL (C) was assessed by native PAGE followed by Coomassie blue staining. […]

[3] = tested on: mouse LPL; assay: Native PAGE binding to mouse LPL; conditions: 4 µM LPL with 18 µM GPIHBP1, 30 min on ice; Coomassie staining
Experimental: as §1, §2, §3, §4

Row | Molecule | Tturbidity (thermal unfolding and aggregation of bLPL) [1] [°C] | binding to bLPL as judged by native PAGE [2] | binding to mLPL as judged by native PAGE [3]
1 | GPIHBP1^Cluster1-neutral: GPIHBP1 mutant with all Glu/Asp replaced by Gln/Asn at residues 1–17 (protein, Tyr18 sulfation present in less than 40%; one bi-antennary N-linked glycosylation; left off: uPAR domain III, N-terminal, cleaved) QTQQQQQQQNQNHGPNNYDEEDEDEVEEEETNRLPGGGSRVLLRCYTCKSLPRDERCNLTQNCSHGQTCTTLIAHGNTESGLLTTHSTWCTDSCQPITKTVEGTQVTMTCCQSSLCNVPPWQSSRVQDPTG | 50.4 ± 0.2 | bound | bound
2 | GPIHBP1^Cluster2-neutral: GPIHBP1 mutant with all Glu/Asp replaced by Gln/Asn at residues 19–30 (protein, Tyr18 sulfation absent; one bi-antennary N-linked glycosylation; left off: uPAR domain III, N-terminal, cleaved) QTQQEEEEEDEDHGPDDYNQQNQNQVQQQQTNRLPGGGSRVLLRCYTCKSLPRDERCNLTQNCSHGQTCTTLIAHGNTESGLLTTHSTWCTDSCQPITKTVEGTQVTMTCCQSSLCNVPPWQSSRVQDPTG | 48.8 ± 0.1 | bound | bound
